US20250277020A1 (Boehringer Ingelheim, published 2025)
Numbering of substitutions follows the chain as printed. Each block holds one binder with its values, some of them ahead of it.

Target: T1, Full-length human CTGF (human, UniProt P29279 27-349)
T1 construct: Corresponds to NCBI NP_001892.1 with the signal peptide omitted; purchased from R&D Systems; also called hCTGF full length; full length CTGF
T1 sequence: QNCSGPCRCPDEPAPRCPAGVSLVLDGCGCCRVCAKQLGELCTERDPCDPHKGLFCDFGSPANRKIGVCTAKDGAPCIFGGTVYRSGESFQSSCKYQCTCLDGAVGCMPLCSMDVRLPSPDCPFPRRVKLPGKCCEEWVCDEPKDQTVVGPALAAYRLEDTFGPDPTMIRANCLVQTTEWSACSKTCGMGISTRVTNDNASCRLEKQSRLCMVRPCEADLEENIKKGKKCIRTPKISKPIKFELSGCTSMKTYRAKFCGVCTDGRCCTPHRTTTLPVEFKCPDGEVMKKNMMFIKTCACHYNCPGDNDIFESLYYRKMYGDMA
Experiment: SPR, full length CTGF

B2: A127 (antibody, human IgG1, kappa, L234A L235A, V domains shown)
VH: EVQLVESGGGLVQPGGSLRLSCAASGFTFSDYYMAWVRQAPGKGLEWVANINYDGSRTDLLESLKSRFTISRDNAKNSVYLQMNSLRAEDTAVYYCARDTSRGSYFDVWGAGTTVTVSS
VL: VVMTQTPLSLPVSLGDQASISCRSSQSIVHYNGNTYLEWYLQKPGQSPQLLIYKVSNRDSGVPDRFSGSGSGTDFTLKISRVEAEDLGVYYCFQGSHFPLTFGQGTKLEIKR
Kd: 0.28 nM

B4: A105 (antibody, human IgG1, kappa, L234A L235A)
light: DIVMTQTPLSLSVSLGDQASISCKSSQSIVHYNGNTYLEWYLQKPGQSPQLLIYKVSSRASGVPDRFSGSGSGTDFTLKISRVEAEDLGVYYCFQGSHFPLTFGQGTKLEIKRTVAAPSVFIFPPSDEQLKSGTASVVCLLNNFYPREAKVQWKVDNALQSGNSQESVTEQDSKDSTYSLSSTLTLSKADYEKHKVYACEVTHQGLSSPVTKSFNRGEC
heavy: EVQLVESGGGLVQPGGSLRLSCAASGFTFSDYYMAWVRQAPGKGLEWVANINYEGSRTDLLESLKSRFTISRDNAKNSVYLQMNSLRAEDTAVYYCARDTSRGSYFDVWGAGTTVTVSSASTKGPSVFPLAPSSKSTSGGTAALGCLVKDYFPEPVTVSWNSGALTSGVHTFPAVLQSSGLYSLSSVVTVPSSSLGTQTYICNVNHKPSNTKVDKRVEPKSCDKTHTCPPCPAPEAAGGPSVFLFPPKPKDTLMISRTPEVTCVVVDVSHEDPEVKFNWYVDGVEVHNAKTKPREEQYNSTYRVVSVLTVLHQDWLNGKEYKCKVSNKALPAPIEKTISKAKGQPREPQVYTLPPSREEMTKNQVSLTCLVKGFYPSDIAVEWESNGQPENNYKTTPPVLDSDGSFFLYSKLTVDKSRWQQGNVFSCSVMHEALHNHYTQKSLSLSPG
Kd: 0.42 nM

B6: A118 (antibody, human IgG1, kappa, L234A L235A)
light: B4 light with G34E, N35K
heavy: not shown
Kd: 0.81 nM

B7: A107 (antibody, human IgG1, kappa, L234A L235A)
light: B4 light
heavy: not shown
Kd: 0.37 nM

B8: A115 (antibody, human IgG1, kappa, L234A L235A)
light: B4 light with G34E, N35K
heavy: not shown
Kd: 0.66 nM

B9: A116 (antibody, human IgG1, kappa, L234A L235A)
light: B4 light with G34E, N35K
heavy: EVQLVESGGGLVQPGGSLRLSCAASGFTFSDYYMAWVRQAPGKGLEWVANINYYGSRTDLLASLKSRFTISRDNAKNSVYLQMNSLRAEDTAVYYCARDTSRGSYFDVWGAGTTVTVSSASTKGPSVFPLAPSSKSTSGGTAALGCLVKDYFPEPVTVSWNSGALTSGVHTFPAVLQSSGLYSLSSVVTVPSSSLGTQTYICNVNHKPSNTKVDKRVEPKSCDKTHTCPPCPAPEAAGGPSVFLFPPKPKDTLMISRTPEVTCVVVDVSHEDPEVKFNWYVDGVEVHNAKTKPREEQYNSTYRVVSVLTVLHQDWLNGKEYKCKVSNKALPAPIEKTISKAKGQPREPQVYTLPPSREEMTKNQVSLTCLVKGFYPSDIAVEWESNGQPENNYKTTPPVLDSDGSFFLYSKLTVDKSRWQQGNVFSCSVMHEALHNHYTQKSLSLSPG
Kd: 0.69 nM

B10: A119 (antibody, human IgG1, kappa, L234A L235A)
light: B4 light with G34E, N35K
heavy: not shown
Kd: 0.91 nM

B12: A120 (antibody, human IgG1, kappa, L234A L235A)
light: B4 light with G34E, N35K
heavy: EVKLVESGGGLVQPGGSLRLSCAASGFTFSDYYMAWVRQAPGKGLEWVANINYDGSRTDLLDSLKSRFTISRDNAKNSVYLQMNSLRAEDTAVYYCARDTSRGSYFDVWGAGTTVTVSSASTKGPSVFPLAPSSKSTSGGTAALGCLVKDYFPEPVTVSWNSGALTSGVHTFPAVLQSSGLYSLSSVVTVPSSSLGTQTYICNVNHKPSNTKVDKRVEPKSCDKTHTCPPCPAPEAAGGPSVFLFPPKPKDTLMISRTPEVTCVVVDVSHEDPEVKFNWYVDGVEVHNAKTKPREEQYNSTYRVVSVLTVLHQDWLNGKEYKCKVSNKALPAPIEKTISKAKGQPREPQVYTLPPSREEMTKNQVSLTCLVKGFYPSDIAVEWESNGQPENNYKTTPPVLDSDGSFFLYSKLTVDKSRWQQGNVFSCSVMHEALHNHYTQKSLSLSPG
Kd: 0.84 nM

B14: A109 (antibody, human IgG1, kappa, L234A L235A)
light: B4 light
heavy: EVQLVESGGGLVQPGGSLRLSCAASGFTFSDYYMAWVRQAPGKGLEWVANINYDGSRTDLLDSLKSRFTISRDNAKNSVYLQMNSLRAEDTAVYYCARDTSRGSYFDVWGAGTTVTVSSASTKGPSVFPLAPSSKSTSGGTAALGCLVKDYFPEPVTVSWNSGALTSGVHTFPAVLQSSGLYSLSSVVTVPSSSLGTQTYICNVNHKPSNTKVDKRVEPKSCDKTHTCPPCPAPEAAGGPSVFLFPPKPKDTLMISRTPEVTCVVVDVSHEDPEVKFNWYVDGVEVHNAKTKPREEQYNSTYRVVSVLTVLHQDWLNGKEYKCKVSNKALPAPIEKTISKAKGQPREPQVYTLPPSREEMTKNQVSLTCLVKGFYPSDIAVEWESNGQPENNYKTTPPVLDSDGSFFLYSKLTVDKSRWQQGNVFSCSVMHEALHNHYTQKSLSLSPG
Kd: 0.44 nM

B16: A112 (antibody, human IgG1, kappa, L234A L235A)
light: B4 light
heavy: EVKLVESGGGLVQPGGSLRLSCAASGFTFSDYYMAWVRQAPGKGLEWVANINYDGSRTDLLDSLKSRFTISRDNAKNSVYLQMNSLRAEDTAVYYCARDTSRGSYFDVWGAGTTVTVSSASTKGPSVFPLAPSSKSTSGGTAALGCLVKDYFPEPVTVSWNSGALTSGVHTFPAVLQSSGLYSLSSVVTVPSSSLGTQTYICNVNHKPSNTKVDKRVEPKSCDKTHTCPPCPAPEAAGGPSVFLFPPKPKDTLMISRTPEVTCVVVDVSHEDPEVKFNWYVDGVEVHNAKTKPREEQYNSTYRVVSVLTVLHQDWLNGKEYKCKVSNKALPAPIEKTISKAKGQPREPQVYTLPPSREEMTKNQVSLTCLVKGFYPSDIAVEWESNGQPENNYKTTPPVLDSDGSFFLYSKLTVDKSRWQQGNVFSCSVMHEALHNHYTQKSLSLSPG
Kd: 0.48 nM

B17: A111 (antibody, human IgG1, kappa, L234A L235A)
light: B4 light
heavy: not shown
Kd: 0.51 nM

B19: A114 (antibody, human IgG1, kappa, L234A L235A)
light: B4 light with G34E, N35K
heavy: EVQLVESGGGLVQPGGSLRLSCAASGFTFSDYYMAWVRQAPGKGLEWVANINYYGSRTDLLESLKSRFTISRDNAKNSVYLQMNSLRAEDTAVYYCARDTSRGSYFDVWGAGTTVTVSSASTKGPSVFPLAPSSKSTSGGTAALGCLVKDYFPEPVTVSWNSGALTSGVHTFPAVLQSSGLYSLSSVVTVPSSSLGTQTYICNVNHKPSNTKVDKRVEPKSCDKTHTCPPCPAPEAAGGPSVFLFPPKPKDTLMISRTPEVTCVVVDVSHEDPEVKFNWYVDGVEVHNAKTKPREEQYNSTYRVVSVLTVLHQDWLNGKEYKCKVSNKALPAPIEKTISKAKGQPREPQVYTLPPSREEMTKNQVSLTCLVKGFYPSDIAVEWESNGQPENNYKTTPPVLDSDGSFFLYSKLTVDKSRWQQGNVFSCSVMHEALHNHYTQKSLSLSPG
Kd: 0.75 nM

The remaining binders from weak to strong by Kd, led by results:

Kd: 0.81 nM
B13: A117 (antibody, human IgG1, kappa, L234A L235A)
light: B4 light with G34E, N35K
heavy: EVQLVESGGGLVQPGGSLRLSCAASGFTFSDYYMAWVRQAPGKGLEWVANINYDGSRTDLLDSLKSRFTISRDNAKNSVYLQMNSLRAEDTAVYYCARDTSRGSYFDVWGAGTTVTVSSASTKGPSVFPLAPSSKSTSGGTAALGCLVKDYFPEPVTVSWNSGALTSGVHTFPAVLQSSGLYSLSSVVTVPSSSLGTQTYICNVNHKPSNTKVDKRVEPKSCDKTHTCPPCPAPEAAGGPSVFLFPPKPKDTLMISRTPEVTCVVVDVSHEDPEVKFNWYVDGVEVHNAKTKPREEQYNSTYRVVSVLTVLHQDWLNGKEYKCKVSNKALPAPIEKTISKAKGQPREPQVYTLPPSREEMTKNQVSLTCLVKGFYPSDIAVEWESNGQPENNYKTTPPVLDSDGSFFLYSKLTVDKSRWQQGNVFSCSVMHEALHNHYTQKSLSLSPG

Kd: 0.76 nM
B11: A113 (antibody, human IgG1, kappa, L234A L235A)
light: B4 light with G34E, N35K
heavy: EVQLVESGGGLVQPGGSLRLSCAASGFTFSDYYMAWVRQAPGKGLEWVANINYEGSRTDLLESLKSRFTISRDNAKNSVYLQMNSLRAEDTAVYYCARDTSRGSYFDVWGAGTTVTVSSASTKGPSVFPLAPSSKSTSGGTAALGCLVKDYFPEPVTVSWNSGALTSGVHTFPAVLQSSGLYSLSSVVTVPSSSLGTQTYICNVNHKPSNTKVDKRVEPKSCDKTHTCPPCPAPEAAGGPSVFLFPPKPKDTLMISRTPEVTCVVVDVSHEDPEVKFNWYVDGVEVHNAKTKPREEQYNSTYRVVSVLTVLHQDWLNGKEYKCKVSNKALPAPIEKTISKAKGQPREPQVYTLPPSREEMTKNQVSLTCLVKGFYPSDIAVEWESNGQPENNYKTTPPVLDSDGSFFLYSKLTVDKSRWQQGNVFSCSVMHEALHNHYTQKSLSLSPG

Kd: 0.45 nM
B18: A110 (antibody, human IgG1, kappa, L234A L235A)
light: B4 light
heavy: not shown

Kd: 0.43 nM
B15: A106 (antibody, human IgG1, kappa, L234A L235A)
light: B4 light
heavy: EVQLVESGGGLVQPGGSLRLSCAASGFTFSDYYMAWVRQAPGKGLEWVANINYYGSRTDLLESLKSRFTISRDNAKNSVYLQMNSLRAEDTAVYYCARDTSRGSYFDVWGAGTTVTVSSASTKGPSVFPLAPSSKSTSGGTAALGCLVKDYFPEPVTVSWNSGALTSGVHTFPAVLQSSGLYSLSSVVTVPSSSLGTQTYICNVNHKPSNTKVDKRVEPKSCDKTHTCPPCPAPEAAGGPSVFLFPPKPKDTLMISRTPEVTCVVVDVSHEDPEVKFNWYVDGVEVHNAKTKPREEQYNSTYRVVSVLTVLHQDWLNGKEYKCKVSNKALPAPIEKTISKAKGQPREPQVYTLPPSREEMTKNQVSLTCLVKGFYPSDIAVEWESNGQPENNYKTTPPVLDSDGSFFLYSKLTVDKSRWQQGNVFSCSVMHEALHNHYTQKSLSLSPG

Kd: 0.42 nM
B5: A108 (antibody, human IgG1, kappa, L234A L235A)
light: B4 light
heavy: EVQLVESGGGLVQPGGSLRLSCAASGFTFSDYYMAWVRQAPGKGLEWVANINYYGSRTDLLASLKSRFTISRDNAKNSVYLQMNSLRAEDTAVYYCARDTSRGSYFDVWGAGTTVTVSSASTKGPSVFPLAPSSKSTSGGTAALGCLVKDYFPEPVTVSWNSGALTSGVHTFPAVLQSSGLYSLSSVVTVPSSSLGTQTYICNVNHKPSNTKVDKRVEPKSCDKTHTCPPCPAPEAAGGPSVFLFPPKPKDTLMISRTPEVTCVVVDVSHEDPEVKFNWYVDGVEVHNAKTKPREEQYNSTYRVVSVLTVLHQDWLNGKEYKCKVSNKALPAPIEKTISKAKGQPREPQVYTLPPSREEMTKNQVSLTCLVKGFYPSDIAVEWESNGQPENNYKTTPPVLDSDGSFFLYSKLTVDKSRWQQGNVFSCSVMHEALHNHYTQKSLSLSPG

Kd: 0.27 nM
B1: A126 (antibody, human IgG1, kappa, L234A L235A, V domains shown)
VH: B2 VH with D54E, E62D
VL: B2 VL

Kd: 0.27 nM
B3: A128 (antibody, human IgG1, kappa, L234A L235A)
light: VVMTQTPLSLPVSLGDQASISCRSSQSIVHYNGNTYLEWYLQKPGQSPQLLIYKVSNRDSGVPDRFSGSGSGTDFTLKISRVEAEDLGVYYCFQGSHFPLTFGQGTKLEIKRTVAAPSVFIFPPSDEQLKSGTASVVCLLNNFYPREAKVQWKVDNALQSGNSQESVTEQDSKDSTYSLSSTLTLSKADYEKHKVYACEVTHQGLSSPVTKSFNRGEC
heavy: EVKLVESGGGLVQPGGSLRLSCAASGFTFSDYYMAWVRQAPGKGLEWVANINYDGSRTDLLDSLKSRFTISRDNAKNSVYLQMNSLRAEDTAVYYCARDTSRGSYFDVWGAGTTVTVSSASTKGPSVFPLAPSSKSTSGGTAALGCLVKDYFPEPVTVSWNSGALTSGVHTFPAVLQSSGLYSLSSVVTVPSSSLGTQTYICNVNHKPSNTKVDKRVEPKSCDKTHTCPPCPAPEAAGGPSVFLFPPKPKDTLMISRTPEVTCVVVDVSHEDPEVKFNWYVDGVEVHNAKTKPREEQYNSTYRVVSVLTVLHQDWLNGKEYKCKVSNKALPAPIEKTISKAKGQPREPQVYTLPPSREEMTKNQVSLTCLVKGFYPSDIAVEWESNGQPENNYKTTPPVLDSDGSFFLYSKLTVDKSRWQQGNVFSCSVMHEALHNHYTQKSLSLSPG
notes: humanized from the 15 pM mouse clone; also called humanized antibody A128
